# T1: fibrinogen (UniProt P02671-2 20-644; P02675 31-491; P02679-2 27-437)
# T1 construct: fibrinogen alpha chain; fibrinogen beta chain; fibrinogen gamma chain; Named only as fibrinogen; also called Fg
# T1 sequence (looked up) 1: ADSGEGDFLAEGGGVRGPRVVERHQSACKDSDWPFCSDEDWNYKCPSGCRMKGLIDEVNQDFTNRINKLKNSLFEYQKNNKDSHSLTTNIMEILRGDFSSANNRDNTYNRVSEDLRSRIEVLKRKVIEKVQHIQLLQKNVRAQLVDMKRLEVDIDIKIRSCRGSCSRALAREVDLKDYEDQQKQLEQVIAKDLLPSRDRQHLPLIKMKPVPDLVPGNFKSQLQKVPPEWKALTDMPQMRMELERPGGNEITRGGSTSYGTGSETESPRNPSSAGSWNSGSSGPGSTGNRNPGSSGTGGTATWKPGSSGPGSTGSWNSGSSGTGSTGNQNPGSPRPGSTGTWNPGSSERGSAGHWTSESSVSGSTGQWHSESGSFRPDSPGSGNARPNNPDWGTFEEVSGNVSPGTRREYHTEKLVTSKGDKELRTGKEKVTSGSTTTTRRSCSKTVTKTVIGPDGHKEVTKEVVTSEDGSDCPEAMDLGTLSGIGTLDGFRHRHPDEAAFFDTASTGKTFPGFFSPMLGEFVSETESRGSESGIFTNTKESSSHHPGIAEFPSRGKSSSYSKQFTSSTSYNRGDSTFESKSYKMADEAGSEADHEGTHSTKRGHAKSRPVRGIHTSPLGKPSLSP
# T1 sequence (looked up) 2: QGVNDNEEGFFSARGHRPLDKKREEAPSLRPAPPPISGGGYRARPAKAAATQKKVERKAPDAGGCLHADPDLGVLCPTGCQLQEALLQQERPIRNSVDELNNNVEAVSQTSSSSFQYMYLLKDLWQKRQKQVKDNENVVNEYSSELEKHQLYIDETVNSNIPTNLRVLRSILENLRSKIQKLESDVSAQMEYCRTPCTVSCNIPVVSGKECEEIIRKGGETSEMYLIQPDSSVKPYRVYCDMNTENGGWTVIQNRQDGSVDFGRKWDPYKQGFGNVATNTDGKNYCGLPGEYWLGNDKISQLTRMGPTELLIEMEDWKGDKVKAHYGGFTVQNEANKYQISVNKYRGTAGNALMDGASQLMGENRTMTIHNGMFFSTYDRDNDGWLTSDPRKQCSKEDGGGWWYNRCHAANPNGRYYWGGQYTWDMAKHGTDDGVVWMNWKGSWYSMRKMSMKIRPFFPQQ
# T1 sequence (looked up) 3: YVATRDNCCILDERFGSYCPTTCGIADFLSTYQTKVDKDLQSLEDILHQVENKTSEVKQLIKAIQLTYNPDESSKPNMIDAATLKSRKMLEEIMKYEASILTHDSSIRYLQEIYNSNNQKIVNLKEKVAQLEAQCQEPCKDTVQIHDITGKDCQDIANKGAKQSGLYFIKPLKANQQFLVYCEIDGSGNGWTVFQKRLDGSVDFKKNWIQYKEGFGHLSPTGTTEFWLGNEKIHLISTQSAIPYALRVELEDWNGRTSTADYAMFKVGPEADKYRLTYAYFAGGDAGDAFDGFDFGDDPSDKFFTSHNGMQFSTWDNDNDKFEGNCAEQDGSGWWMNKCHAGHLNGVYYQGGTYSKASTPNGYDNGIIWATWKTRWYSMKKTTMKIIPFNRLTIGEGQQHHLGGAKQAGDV
# B1: full-length Emp protein (extracellular matrix protein Emp of Staphylococcus aureus, without the signal peptide) (natural protein)
# chain: SVTESVDKKFVVPESGINKIIPAYDEFKNSPKVNVSNLTDNKNFVASEDKLNKIADSSAASKIVDKNFVVPESKLGNIVPEYKEINNRVNVATNNPASQQVDKHFVAKGPEVNRFITQNKVNHHFITTQTHYKKVITSYKSTHVHKHVNHAKDSINKHFIVKPSESPRYTHPSQSLIIKHHFAVPGYHAHKFVTPGHASIKINHFCVVPQINSFKVIPPYGHNSHRMHVPSFQNNTTATHQNAKVNKAYDYKYFYSYKVVKGVKKYFSFSQSNGYKIGKPSLNIKNVNYQYAVPSYSPTHYVPEFKGSLPAPRV
# notes: gene of 1,023 nucleotides; numbers count on: the protein without signal peptide and without His-tag; The vector (printed pQ30-UA, Qiagen) probably adds an N-terminal His6 (surmised); Primer EmpFor1UA starts at nt +76 (codon 26), which would give 315 residues against the printed 314; also called EmpFL; source: E. coli (TG1 transformants, plasmid pQemp), purified (Ni-NTA in 8 M urea, solubilized by …)
# B2: Emp2 (central fragment of Emp) (domain or fragment)
# chain: YKEINNRVNVATNNPASQQVDKHFVAKGPEVNRFITQNKVNHHFITTQTHYKKVITSYKSTHVHKHVNHAKDSINKHFIVKPSESPRYTHPSQSLIIKHHFAVPGYHAH
# notes: primers EmpFor2UA (+322) and EmpRev2UA (+648) relative to ATG; limits worked out from these positions and count on the precursor; source: E. coli (TG1 transformants, plasmid pQemp2), purified (Ni-NTA in 8 M urea, solubilized by stepwise dialysis)
# B3: Emp3 (C-terminal fragment of Emp) (domain or fragment)
# chain: FAVPGYHAHKFVTPGHASIKINHFCVVPQINSFKVIPPYGHNSHRMHVPSFQNNTTATHQNAKVNKAYDYKYFYSYKVVKGVKKYFSFSQSNGYKIGKPSLNIKNVNYQYAVPSYSPTHYVPEFKGSLPAPRV
# notes: primers EmpFor3UA (+622) and EmpRev3UA (+1024, holds the stop codon) relative to ATG; limits worked out from these positions and count on the precursor; source: E. coli (TG1 transformants, plasmid pQemp3), purified (Ni-NTA in 8 M urea, solubilized by stepwise dialysis)
# B4: Emp1+2 (combination of Emp1 and Emp2) (domain or fragment)
# chain: ASVTESVDKKFVVPESGINKIIPAYDEFKNSPKVNVSNLTDNKNFVASEDKLNKIADSSAASKIVDKNFVVPESKLGNIVPEYKEINNRVNVATNNPASQQVDKHFVAKGPEVNRFITQNKVNHHFITTQTHYKKVITSYKSTHVHKHVNHAKDSINKHFIVKPSESPRYTHPSQSLIIKHHFAVPGYHAH
# notes: limits worked out from these positions and count on the precursor; source: E. coli (TG1 transformants, plasmid pQemp1 + 2), purified (Ni-NTA in 8 M urea, solubilized by stepwise dialysis)
# B5: Emp2+3 (combination of Emp2 and Emp3; N-truncated Emp) (domain or fragment)
# chain: YKEINNRVNVATNNPASQQVDKHFVAKGPEVNRFITQNKVNHHFITTQTHYKKVITSYKSTHVHKHVNHAKDSINKHFIVKPSESPRYTHPSQSLIIKHHFAVPGYHAHKFVTPGHASIKINHFCVVPQINSFKVIPPYGHNSHRMHVPSFQNNTTATHQNAKVNKAYDYKYFYSYKVVKGVKKYFSFSQSNGYKIGKPSLNIKNVNYQYAVPSYSPTHYVPEFKGSLPAPRV
# notes: limits worked out from these positions and count on the precursor; source: E. coli (TG1 transformants, plasmid pQemp2 + 3), purified (Ni-NTA in 8 M urea, solubilized by stepwise dialysis)
# Experiments:
# [1] = molecular target: fibronectin (Homo sapiens) (UniProt P02751); assay: SPR; conditions: cited from earlier work
# Sequence of fibronectin (Homo sapiens) (P02751 32-2477): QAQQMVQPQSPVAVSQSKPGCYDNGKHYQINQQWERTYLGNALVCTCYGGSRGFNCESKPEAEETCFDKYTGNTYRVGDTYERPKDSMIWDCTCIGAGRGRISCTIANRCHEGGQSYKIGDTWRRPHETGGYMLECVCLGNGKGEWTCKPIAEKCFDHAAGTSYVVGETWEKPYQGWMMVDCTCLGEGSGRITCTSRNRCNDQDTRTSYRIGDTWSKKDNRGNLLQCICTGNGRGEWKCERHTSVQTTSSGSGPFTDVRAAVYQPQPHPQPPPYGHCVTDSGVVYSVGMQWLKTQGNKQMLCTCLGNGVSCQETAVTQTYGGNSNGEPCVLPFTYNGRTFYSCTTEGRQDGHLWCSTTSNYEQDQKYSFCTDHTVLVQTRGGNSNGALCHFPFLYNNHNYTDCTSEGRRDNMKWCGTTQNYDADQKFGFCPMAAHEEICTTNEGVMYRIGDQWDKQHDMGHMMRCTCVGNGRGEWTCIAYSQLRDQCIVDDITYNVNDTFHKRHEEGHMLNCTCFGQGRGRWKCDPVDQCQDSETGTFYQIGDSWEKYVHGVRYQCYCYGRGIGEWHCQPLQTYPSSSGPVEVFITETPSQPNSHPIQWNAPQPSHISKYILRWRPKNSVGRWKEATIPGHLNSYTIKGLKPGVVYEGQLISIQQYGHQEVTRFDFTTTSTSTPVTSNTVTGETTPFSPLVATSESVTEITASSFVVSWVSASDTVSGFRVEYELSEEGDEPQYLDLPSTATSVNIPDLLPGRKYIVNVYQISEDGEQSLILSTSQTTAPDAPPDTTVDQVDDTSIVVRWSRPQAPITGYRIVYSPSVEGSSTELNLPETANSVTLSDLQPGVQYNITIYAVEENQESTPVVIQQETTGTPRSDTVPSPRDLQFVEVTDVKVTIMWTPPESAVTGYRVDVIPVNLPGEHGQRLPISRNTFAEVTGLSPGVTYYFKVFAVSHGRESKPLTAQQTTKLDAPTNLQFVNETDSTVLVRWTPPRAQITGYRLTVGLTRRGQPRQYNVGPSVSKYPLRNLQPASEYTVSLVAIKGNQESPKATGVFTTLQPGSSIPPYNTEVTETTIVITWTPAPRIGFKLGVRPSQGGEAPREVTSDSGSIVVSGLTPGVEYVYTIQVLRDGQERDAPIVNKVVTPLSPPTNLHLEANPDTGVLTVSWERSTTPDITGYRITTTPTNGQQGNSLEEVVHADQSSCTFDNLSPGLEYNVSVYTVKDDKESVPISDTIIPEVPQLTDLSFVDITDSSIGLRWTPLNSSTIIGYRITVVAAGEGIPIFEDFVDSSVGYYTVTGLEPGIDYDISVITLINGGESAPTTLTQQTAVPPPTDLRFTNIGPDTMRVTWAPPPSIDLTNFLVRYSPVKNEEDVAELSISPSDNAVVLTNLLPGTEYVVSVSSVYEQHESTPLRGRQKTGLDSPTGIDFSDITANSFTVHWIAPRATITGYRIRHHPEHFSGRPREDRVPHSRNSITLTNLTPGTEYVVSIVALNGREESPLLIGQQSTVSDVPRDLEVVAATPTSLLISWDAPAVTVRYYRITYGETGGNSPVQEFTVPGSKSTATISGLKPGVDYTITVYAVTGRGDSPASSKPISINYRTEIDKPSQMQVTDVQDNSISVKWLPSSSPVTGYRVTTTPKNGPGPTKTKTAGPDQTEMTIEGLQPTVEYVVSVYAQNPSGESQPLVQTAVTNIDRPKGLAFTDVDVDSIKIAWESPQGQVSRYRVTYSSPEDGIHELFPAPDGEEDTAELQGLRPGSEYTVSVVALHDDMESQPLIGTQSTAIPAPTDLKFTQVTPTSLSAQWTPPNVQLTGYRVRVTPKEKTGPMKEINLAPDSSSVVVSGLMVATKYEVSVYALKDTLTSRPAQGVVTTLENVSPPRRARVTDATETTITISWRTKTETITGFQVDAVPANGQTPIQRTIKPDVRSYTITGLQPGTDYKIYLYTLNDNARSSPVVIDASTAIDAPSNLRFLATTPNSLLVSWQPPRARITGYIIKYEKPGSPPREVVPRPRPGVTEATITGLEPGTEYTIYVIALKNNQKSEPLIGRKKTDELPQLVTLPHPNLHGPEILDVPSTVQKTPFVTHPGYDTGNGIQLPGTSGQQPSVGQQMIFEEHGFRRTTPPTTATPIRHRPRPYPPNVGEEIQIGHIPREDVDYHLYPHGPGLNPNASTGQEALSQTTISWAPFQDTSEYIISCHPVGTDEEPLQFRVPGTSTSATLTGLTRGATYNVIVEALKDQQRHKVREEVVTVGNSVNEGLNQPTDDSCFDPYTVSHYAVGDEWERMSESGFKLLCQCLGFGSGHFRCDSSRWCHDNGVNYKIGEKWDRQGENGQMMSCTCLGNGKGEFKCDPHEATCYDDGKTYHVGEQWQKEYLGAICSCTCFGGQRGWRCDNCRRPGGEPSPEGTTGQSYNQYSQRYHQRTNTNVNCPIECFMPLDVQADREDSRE
# [2] = molecular target: vitronectin (Homo sapiens) (UniProt P04004); assay: SPR; conditions: cited from earlier work
# Sequence of vitronectin (Homo sapiens) (P04004 399-478): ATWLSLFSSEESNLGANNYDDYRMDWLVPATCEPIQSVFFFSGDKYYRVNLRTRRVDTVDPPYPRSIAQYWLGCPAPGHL
# [3] = molecular target: fibrinogen (Homo sapiens) (UniProt P02671); assay: SPR; conditions: cited from earlier work
# [4] = molecular target: vitronectin; assay: ELISA; matrix component (0.25 ug/well in 0.1 M Na2CO3, overnight 4 C) immobilised on polystyrene plates; Emp forms 0-1.5 uM added for 1 h at RT, PBST washes; detected with polyclonal anti-Emp IgG and AP-conjugated anti-rabbit IgG; KD from steady-state curves, one-site binding model
# Sequence of vitronectin (P04004 20-478): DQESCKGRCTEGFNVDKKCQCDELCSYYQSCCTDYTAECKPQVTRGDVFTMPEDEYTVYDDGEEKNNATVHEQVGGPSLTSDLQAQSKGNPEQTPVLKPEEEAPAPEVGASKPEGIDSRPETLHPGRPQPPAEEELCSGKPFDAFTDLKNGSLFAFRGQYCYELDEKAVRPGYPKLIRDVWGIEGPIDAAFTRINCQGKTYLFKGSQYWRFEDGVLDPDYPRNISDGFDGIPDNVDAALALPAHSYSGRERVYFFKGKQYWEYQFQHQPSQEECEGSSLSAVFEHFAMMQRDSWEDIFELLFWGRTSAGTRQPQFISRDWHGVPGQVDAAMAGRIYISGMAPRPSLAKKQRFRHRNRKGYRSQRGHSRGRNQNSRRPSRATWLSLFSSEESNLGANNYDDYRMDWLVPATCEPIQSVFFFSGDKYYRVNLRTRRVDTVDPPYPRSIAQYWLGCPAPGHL
# [5] = molecular target: T1, fibrinogen; assay: as above; conditions: both partners purified
# [6] = molecular target: T2, collagen I (UniProt P02452 162-1218; P08123 80-1119); assay: as above; conditions: both partners purified
# T2 construct: collagen alpha-1(I) chain; collagen alpha-2(I) chain; Named only as collagen I; also called Cn I; Cn l
# T2 sequence (P02452 162-1218, chain 1 of 2): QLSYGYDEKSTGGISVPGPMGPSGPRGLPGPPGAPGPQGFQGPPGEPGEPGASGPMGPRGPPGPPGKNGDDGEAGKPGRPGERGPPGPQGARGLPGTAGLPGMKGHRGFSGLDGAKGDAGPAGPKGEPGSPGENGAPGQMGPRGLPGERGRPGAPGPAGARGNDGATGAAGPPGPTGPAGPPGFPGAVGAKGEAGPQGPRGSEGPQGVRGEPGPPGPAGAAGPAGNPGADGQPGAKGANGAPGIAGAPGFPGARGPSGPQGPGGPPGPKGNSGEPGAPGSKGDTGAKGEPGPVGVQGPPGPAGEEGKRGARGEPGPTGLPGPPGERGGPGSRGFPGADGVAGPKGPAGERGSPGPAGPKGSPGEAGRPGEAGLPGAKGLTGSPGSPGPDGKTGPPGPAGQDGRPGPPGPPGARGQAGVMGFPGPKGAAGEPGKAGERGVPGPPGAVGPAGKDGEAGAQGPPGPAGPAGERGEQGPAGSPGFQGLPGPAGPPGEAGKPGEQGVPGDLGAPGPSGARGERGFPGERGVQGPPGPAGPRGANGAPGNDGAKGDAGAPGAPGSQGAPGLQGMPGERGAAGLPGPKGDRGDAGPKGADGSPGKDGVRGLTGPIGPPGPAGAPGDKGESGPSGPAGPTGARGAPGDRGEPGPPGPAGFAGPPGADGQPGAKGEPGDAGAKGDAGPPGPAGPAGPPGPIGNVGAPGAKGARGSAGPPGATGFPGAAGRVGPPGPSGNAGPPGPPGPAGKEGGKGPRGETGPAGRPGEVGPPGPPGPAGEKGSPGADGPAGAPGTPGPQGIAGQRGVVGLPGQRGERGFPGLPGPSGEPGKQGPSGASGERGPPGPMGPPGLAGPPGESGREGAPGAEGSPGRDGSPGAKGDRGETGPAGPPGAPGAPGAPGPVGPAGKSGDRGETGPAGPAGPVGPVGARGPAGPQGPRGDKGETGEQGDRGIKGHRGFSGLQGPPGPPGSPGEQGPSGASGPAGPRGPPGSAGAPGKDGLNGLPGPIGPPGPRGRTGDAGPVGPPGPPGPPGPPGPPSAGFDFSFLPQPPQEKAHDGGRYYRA
# T2 sequence (P08123 80-1119, chain 2 of 2): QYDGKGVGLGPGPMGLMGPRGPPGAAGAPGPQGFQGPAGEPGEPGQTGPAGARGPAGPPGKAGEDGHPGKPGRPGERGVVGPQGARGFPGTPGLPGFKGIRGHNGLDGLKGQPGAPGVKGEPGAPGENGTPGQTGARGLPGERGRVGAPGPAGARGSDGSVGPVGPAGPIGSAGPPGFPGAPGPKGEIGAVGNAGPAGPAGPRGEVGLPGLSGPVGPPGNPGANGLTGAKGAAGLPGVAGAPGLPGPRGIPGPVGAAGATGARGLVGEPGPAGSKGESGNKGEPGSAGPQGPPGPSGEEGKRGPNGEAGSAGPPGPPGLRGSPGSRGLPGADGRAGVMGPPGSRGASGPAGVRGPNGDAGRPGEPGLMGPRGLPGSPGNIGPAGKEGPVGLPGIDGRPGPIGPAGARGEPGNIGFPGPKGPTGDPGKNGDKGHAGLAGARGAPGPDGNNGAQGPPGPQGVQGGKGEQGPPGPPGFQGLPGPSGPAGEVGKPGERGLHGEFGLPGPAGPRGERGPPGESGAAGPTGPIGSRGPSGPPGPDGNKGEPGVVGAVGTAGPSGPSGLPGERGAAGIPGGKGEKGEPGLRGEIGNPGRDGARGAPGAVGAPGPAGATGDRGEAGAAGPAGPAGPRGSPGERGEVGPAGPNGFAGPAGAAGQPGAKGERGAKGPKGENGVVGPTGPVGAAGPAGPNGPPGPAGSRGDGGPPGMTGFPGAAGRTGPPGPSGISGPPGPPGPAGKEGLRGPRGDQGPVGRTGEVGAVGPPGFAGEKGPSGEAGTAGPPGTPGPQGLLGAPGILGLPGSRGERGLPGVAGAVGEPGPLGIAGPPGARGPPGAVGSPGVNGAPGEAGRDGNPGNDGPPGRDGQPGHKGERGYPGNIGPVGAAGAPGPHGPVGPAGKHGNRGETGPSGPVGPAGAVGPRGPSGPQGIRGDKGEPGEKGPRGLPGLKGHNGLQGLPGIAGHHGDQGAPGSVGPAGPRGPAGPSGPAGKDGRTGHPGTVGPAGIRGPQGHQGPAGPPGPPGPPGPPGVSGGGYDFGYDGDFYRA
# [7] = molecular target: fibronectin (UniProt P02751 32-2477); assay: as above; conditions: both partners purified
# Sequence of fibronectin (P02751 32-2477): as the sequence (P02751 32-2477) above
Molecule,Kd [1],Kd [2],Kd [3],Kd [4],Kd [5],Kd [6],Kd [7]
Emp (from UniProt Q7A6P4),21 nM,0.122 nM,91 nM,–,–,–,–
B1,–,–,–,34 nM,70 ± 1 nM,27 ± 5 nM,43 ± 11 nM
B2,–,–,–,18 nM,9 ± 2.6 nM,13 ± 6 nM,8 ± 3 nM
B3,–,–,–,449 nM,756 ± 224 nM,32 ± 7 nM,311 ± 79 nM
B4,–,–,–,9 nM,14 ± 3 nM,31 ± 5 nM,3 ± 2 nM
B5,–,–,–,200 nM,556 ± 115 nM,207 ± 44 nM,404 ± 95 nM

# Reference: article PMC5651841, “The Staphylococcus aureus extracellular matrix protein (Emp) has a fibrous structure and binds to different extracellular matrices” (Scientific Reports, 2017)
